B1: Pasm28 (dsDNA)
DNA 1: CGCAGTGGCCCGAACGGGTCCGCAGTGGCCCGAACGGGTCCGCAGTGGCCCGAACGGGTC
DNA 2: GACCCGTTCGGGCCACTGCGGACCCGTTCGGGCCACTGCGGACCCGTTCGGGCCACTGCG
B2: PssgA (dsDNA)
DNA 1: GTGTTGGCCGGAACCACGGTGTTGGCCGGAACCACGGTGTTGGCCGGAACCACG
DNA 2: CGTGGTTCCGGCCAACACCGTGGTTCCGGCCAACACCGTGGTTCCGGCCAACAC

Legend:
AdpA_1075 [1] = biological target: T1, AdpA_1075 (Actinosynnema pretiosum subsp. …, UniProt A0A290Z1C2 1-322); assay: EMSA; shifted with 1000 nM protein; excess unlabeled specific DNA competes; Beyotime Chemiluminescent EMSA Kit (buffer, salt and pH not stated); 20 ng biotin-labeled probe, 10 min at room temperature, 5% polyacrylamide gel; details: protein: recombinant; tags: His6 (pET-28a NdeI/HindIII; the reverse primer keeps the stop codon, so N-terminal tag; named AdpA_1075-His6 in the text); chain copies: 2; label: 5' biotin on strand 1; blunt
T1 sequence: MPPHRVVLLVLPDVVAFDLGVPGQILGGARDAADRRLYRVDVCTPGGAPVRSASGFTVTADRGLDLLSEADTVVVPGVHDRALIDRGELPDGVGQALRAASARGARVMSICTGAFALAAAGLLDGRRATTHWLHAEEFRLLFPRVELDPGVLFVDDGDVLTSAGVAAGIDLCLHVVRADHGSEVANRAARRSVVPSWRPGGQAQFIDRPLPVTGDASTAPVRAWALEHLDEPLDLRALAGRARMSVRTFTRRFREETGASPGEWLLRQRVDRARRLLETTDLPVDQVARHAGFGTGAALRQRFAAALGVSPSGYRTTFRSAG

AdpA_1075 [2] = biological target: T1, AdpA_1075; assay: EMSA; protein concentration-dependent shift; excess unlabeled specific DNA competes; Beyotime Chemiluminescent EMSA Kit (buffer, salt and pH not stated); 20 ng biotin-labeled probe, 10 min at room temperature, 5% polyacrylamide gel; details: protein: recombinant; tags: His6 (pET-28a NdeI/HindIII; the reverse primer keeps the stop codon, so N-terminal tag; named AdpA_1075-His6 in the text); chain copies: 2; label: 5' biotin on strand 1; blunt

Binder	binding result (AdpA_1075 [1])	binding result (AdpA_1075 [2])
B1	binds	
B2		binds
